Assay results reported in US20130231277A1.

Target: FGFR1c endogenously expressed by HEK293 cells transiently transfected with murine βKlotho (UniProt P11362)
Assay: cell-based or functional assay

Sequence of FGFR1c endogenously expressed by HEK293 cells transiently transfected with murine βKlotho (P11362 22-822): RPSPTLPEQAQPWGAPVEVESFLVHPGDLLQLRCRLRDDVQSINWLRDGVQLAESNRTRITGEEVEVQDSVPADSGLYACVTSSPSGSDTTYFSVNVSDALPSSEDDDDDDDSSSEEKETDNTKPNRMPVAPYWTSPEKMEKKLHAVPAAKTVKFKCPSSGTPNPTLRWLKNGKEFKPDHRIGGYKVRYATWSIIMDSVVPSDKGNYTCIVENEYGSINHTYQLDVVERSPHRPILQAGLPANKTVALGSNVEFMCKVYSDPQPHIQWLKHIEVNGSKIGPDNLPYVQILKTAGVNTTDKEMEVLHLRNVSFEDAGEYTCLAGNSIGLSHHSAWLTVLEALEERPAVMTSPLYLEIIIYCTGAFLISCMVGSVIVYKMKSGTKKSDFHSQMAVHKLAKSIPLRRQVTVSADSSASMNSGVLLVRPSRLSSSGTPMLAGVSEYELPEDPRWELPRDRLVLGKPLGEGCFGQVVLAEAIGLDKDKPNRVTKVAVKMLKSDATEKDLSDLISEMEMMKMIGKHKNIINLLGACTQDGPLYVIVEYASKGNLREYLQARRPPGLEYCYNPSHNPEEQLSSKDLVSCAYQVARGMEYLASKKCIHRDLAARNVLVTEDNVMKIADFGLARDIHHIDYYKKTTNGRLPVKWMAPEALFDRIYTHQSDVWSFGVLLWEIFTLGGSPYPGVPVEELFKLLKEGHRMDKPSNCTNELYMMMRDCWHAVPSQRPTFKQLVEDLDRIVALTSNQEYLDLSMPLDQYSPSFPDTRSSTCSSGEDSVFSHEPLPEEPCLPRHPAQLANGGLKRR

Induction of Egr1 protein expression (immunoblot, HEK293 cells co-expressing FGFR1c and βKlotho): 30 ng/mL
Substance: Q104M single mutant of human FGF21 (SEQ ID NO: 152) (from UniProt Q9NSA1 29-209) (ligand)
